The text below walks through data of patent publication US20230002496A1 (STAIDSON BEIJING BIOPHARMACEUTICALS, published 2023).

The target in one test is T1, human GM-CSFRα-6His (human, UniProt P15509 23-320).
T1 construct: pTT5-GMRa-6his (ECD), made in 293F cells; also called GMRah; GMRa-6his(ECD)
T1 sequence: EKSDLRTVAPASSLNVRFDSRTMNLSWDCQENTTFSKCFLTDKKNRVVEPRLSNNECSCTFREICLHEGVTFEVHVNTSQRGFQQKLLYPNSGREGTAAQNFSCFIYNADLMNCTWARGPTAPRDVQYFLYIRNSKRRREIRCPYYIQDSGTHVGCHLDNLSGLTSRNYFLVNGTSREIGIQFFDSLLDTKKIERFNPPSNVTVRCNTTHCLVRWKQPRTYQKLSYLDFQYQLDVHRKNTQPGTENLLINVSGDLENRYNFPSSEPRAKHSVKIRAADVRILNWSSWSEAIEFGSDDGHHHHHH
Description: ELISA on human GM-CSFRα, antibodies as human IgG1; x axis 'Log Ab concentration', no unit. For orientation: ELISA stands for enzyme-linked immunosorbent assay.

For test [1], the target named is T2, human GM-CSFRα, full length on cells (human, UniProt P15509 23-400).
T2 sequence: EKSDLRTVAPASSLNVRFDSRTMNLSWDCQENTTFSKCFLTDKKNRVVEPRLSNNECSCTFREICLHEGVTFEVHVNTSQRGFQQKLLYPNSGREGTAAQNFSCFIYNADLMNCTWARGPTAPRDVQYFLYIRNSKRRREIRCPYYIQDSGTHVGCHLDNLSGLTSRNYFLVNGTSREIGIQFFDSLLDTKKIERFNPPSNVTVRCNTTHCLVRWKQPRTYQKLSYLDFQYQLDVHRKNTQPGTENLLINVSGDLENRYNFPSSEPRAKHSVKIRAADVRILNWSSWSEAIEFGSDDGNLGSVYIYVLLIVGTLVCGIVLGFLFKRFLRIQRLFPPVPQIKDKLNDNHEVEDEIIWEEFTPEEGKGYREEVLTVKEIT
Description: cell-based or functional assay.

B1: E01-IgG1 (antibody, V domains shown)
VH: QMQLVQSGAEVKKPGASVKVSCKVSGHTLTELSIHWVRQAPGKGLEWMGGFDPEDGETNYAQKSQGRVTMTGDTSTDTAYLELSSLRSEDTALYYCATGRYCSTDTCYGFDYWGQGTLVTVSS
VL: EIVMTQSPATLSLSPGERATLSCRASQSVSSYLAWYQQKPGQAPRLLIYGASSRATGIPDRFSGSGSGTDFTLTISRLEPEDFAVYYCQQYDNWPPTFGQGTKLEIK
notes: human IgG1, human kappa; also called E1
Consider B1, for which the binding result in the test with human GM-CSFRα-6His was “binds”.

B2: E35-VH28E-VL30C-IG4 (antibody, IgG4, V domains shown)
VH: QMQLVQSGAEVKKPGASVKVSCKVSGYELTELSIHWVRQAPGKGLEWMGGFDPEDGETIYAQKFQGRVTMTGDTSTDTAYLELSSLRSEDTALYYCATGRYTSLATTYGFDYWGQGTLVTVSS
VL: EIVMTQSPATLSLSPGERATLSCRASQSVCSYLAWYQQKPGQAPRLLIYGASSRATGIPDRFSGSGSGTDFTLTISRLEPEDFAVYYCQQYDNWPYTFGQGTKLEIK
With B2, the “IC50, TF-1 cell proliferation” value in test [1] was determined as 0.0208 µg/mL.

B3: E35-VH28H-VL30L-IG4 (antibody, IgG4, V domains shown)
VH: QMQLVQSGAEVKKPGASVKVSCKVSGYHLTELSIHWVRQAPGKGLEWMGGFDPEDGETIYAQKFQGRVTMTGDTSTDTAYLELSSLRSEDTALYYCATGRYTSLATTYGFDYWGQGTLVTVSS
VL: EIVMTQSPATLSLSPGERATLSCRASQSVLSYLAWYQQKPGQAPRLLIYGASSRATGIPDRFSGSGSGTDFTLTISRLEPEDFAVYYCQQYDNWPYTFGQGTKLEIK
Consider B3, for which the “IC50, TF-1 cell proliferation” value in test [1] came to 0.0296 µg/mL.

B4: E35-VH28H-VL93L-IG4 (antibody, IgG4, V domains shown)
VH: QMQLVQSGAEVKKPGASVKVSCKVSGYHLTELSIHWVRQAPGKGLEWMGGFDPEDGETIYAQKFQGRVTMTGDTSTDTAYLELSSLRSEDTALYYCATGRYTSLATTYGFDYWGQGTLVTVSS
VL: EIVMTQSPATLSLSPGERATLSCRASQSVSSYLAWYQQKPGQAPRLLIYGASSRATGIPDRFSGSGSGTDFTLTISRLEPEDFAVYYCQQYDLWPYTFGQGTKLEIK
With B4, in test [1], the “IC50, TF-1 cell proliferation” value came out at 0.0163 µg/mL.

B5: E35-VH28H-VL30C-IG4 (antibody, IgG4, V domains shown)
VH: QMQLVQSGAEVKKPGASVKVSCKVSGYHLTELSIHWVRQAPGKGLEWMGGFDPEDGETIYAQKFQGRVTMTGDTSTDTAYLELSSLRSEDTALYYCATGRYTSLATTYGFDYWGQGTLVTVSS
VL: EIVMTQSPATLSLSPGERATLSCRASQSVCSYLAWYQQKPGQAPRLLIYGASSRATGIPDRFSGSGSGTDFTLTISRLEPEDFAVYYCQQYDNWPYTFGQGTKLEIK
For B5, the “IC50, TF-1 cell proliferation” value in test [1] came out at 0.0431 µg/mL.

B6: E35-VL93D-IG4 (antibody, IgG4, V domains shown)
VH: QMQLVQSGAEVKKPGASVKVSCKVSGYTLTELSIHWVRQAPGKGLEWMGGFDPEDGETIYAQKFQGRVTMTGDTSTDTAYLELSSLRSEDTALYYCATGRYTSLATTYGFDYWGQGTLVTVSS
VL: EIVMTQSPATLSLSPGERATLSCRASQSVSSYLAWYQQKPGQAPRLLIYGASSRATGIPDRFSGSGSGTDFTLTISRLEPEDFAVYYCQQYDDWPYTFGQGTKLEIK
As for B6, the “IC50, TF-1 cell proliferation” value in test [1] stood at 0.0371 µg/mL.

B7: E35-VH28E-IG4 (antibody, IgG4, V domains shown)
VH: QMQLVQSGAEVKKPGASVKVSCKVSGYELTELSIHWVRQAPGKGLEWMGGFDPEDGETIYAQKFQGRVTMTGDTSTDTAYLELSSLRSEDTALYYCATGRYTSLATTYGFDYWGQGTLVTVSS
VL: EIVMTQSPATLSLSPGERATLSCRASQSVSSYLAWYQQKPGQAPRLLIYGASSRATGIPDRFSGSGSGTDFTLTISRLEPEDFAVYYCQQYDNWPYTFGQGTKLEIK
Turning to B7, in test [1], the “IC50, TF-1 cell proliferation” value was 0.0307 µg/mL.

B8: E35-VH28E-VL30L-IG4 (antibody, IgG4, V domains shown)
VH: QMQLVQSGAEVKKPGASVKVSCKVSGYELTELSIHWVRQAPGKGLEWMGGFDPEDGETIYAQKFQGRVTMTGDTSTDTAYLELSSLRSEDTALYYCATGRYTSLATTYGFDYWGQGTLVTVSS
VL: EIVMTQSPATLSLSPGERATLSCRASQSVLSYLAWYQQKPGQAPRLLIYGASSRATGIPDRFSGSGSGTDFTLTISRLEPEDFAVYYCQQYDNWPYTFGQGTKLEIK
As to B8, the “IC50, TF-1 cell proliferation” value in test [1] stood at 0.0268 µg/mL.

B9: E35-VH28H-IG4 (antibody, IgG4, V domains shown)
VH: QMQLVQSGAEVKKPGASVKVSCKVSGYHLTELSIHWVRQAPGKGLEWMGGFDPEDGETIYAQKFQGRVTMTGDTSTDTAYLELSSLRSEDTALYYCATGRYTSLATTYGFDYWGQGTLVTVSS
VL: EIVMTQSPATLSLSPGERATLSCRASQSVSSYLAWYQQKPGQAPRLLIYGASSRATGIPDRFSGSGSGTDFTLTISRLEPEDFAVYYCQQYDNWPYTFGQGTKLEIK
Take B9: in test [1], the “IC50, TF-1 cell proliferation” value was found to be 0.0569 µg/mL.

B10: E35-VH28H-VL30L-93D-IG4 (antibody, IgG4, V domains shown)
VH: QMQLVQSGAEVKKPGASVKVSCKVSGYHLTELSIHWVRQAPGKGLEWMGGFDPEDGETIYAQKFQGRVTMTGDTSTDTAYLELSSLRSEDTALYYCATGRYTSLATTYGFDYWGQGTLVTVSS
VL: EIVMTQSPATLSLSPGERATLSCRASQSVLSYLAWYQQKPGQAPRLLIYGASSRATGIPDRFSGSGSGTDFTLTISRLEPEDFAVYYCQQYDDWPYTFGQGTKLEIK
As for B10, the “IC50, TF-1 cell proliferation” value in test [1] is 0.0241 µg/mL.

B11: E31-IgG1 (antibody, V domains shown)
VH: QMQLVQSGAEVKKPGASVKVSCKVSGYTLTELSIHWVRQAPGKGLEWMGGFDPEDGETIYAQKSQGRVTMTGDTSTDTAYLELSSLRSEDTALYYCATGRYSESFASYGFDYWGQGTLVTVSS
VL: EIVMTQSPATLSLSPGERATLSCRASQSVSSYLAWYQQKPGQAPRLLIYGASSRATGIPDRFSGSGSGTDFTLTISRLEPEDFAVYYCQQYDNWPYTFGQGTKLEIK
notes: human IgG1, human kappa
On to B11, for which the binding result with human GM-CSFRα-6His is “binds”.

B12: E88-IgG1 (antibody, V domains shown)
VH: QMQLVQSGAEVKKPGASVKVSCKVSGHTLTELSMHWVRQAPGKGLEWMGGFDPEDGETIYAQKFQGRVTMTGDTSTDTAYLELSSLRSEDTALYYCATGRYCHKDGCYGFDYWGQGTLVTVSS
VL: EIVMTQSPATLSLSPGERATLSCRASQSVSSYLAWYQQKPGQAPRLLIYGASSRATGIPDRFSGSGSGTDFTLTISRLEPEDFAVYYCQQYDSSPHTFGQGTKLEIK
notes: human IgG1, human kappa
As to B12, the binding result in the test with human GM-CSFRα-6His is given as “binds”.

B13: E61-IgG1 (antibody, V domains shown)
VH: QMQLVQSGAEVKKPGASVKVSCKVSGYTLTELSMHWVRQAPGKGLEWMGGFDPEDGETIYAQKFQGRVTMTGDTSTDTAYLELSSLRSEDTALYYCATGRYAWTDIAYGFDYWGQGTLVTVSS
VL: EIVMTQSPATLSLSPGERATLSCRASQSVSSYLAWYQQKPGQAPRLLIYGASSRATGIPDRFSGSGSGTDFTLTISRLEPEDFAVYYCQQYDNSPSTFGQGTKLEIK
notes: human IgG1, human kappa
As for B13, in the test with human GM-CSFRα-6His, the binding result was “binds”.

B14: E84-IgG1 (antibody, V domains shown)
VH: QMQLVQSGAEVKKPGASVKVSCKVSGYTLTELSMHWVRQAPGKGLEWMGGFDPEDGETIYAQKSQGRVTMTGDTSTDTAYLELSSLRSEDTALYYCATGRYTRGWFNYGFDYWGQGTLVTVSS
VL: EIVMTQSPATLSLSPGERATLSCRASQSVSSYLAWYQQKPGQAPRLLIYGASSRATGIPDRFSGSGSGTDFTLTISRLEPEDFAVYYCQQYNNWPYTFGQGTKLEIK
notes: human IgG1, human kappa
For the molecule B14, the binding result in the test with human GM-CSFRα-6His was “binds”.

B15: E172-IgG1 (antibody, V domains shown)
VH: QMQLVQSGAEVKKPGASVKVSCKVSGYTLTELSMHWVRQAPGKGLEWMGGFDPEDGETIYAQKFQGRVTMTGDTSTDTAYLELSSLRSEDTALYYCATGRYANLYNNYGFDYWGQGTLVTVSS
VL: EIVMTQSPATLSLSPGERATLSCRASQSVSSYLAWYQQKPGQAPRLLIYGASSRATGIPDRFSGSGSGTDFTLTISRLEPEDFAVYYCQQYNNWPPTFGQGTKLEIK
notes: human IgG1, human kappa
In the case of B15, the binding result in the test with human GM-CSFRα-6His was “binds”.

B16: E90-IgG1 (antibody, V domains shown)
VH: QMQLVQSGAEVKKPGASVKVSCKVSGYTLTELSIHWVRQAPGKGLEWMGGFDPEDGETIYAQKSQGRVTMTGDTSTDTAYLELSSLRSEDTALYYCATGRYTGLYASYGFDYWGQGTLVTVSS
VL: EIVMTQSPATLSLSPGERATLSCRASQSVSSYLAWYQQKPGQAPRLLIYGASSRATGIPDRFSGSGSGTDFTLTISRLEPEDFAVYYCQQYDNWPYTFGQGTKLEIK
notes: human IgG1, human kappa
Regarding B16, in the test with human GM-CSFRα-6His, the binding result was “binds”.

B17: E164-IgG1 (antibody, V domains shown)
VH: QMQLVQSGAEVKKPGASVKVSCKVSGHTLTELSMHWVRQAPGKGLEWMGGFDPEDGETIYAQKSQGRVTMTGDTSTDTAYLELSSLRSEDTALYYCATGRYTNDFANYGFDYWGQGTLVTVSS
VL: EIVMTQSPATLSLSPGERATLSCRASQSVSSYLAWYQQKPGQAPRLLIYGASSRATGIPDRFSGSGSGTDFTLTISRLEPEDFAVYYCQQYNNWPYTFGQGTKLEIK
notes: human IgG1, human kappa
As for B17, the binding result in the test with human GM-CSFRα-6His is listed as “binds”.

B18: E83-IgG1 (antibody, V domains shown)
VH: QMQLVQSGAEVKKPGASVKVSCKVSGYTLTELSIHWVRQAPGKGLEWMGGFDPEDGETIYAQKSQGRVTMTGDTSTDTAYLELSSLRSEDTALYYCATGRYCFYDLCYGFDYWGQGTLVTVSS
VL: EIVMTQSPATLSLSPGERATLSCRASQSVSSYLAWYQQKPGQAPRLLIYGASSRATGIPDRFSGSGSGTDFTLTISRLEPEDFAVYYCQQYSNSPPTFGQGTKLEIK
notes: human IgG1, human kappa
As for B18, the binding result in the test with human GM-CSFRα-6His is reported as “binds”.
